Laboratory results from PMC11514473, “The transition state for coupled folding and binding of a disordered DNA binding domain resembles the unbound state” (Nucleic Acids Research, 2024).
Residue numbers refer to the chain shown, from its start.

Tests used:
[1] = target: T1, CREB 285bZIP wild type (pseudo-WT, Cys to Ser) (human, UniProt P16220-1 285-339, C300S;C310S;C337S); assay: stopped-flow fluorescence (koff/kon); koff 2.44 s-1 averaged over competitor concentrations; 10 mM Mg2+; 10 mM MES pH 6.5, 150 mM NaCl, 10 mM MgCl2, 0.05% Tween-20, 25 C; NMR: 10 mM Tris-d11, 150 mM NaCl, 10 mM MgCl2, 1 mM NaN3, 5% D2O (NOE at 25 C); conditions: protein: recombinant; tags: extra N-terminal Gly after TEV cleavage; His6-GB1 removed; chain copies: 2; label: 5' Alexa Fluor 488; hairpin (self-annealing, 11 bp stem, CCCC loop)
T1 sequence: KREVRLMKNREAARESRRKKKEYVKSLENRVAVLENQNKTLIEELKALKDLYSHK

[2] = target: T1, CREB 285bZIP wild type (pseudo-WT, Cys …); assay: stopped-flow fluorescence (koff/kon); koff 2.531 s-1; kon 6.7 nM-1 s-1; 10 mM Mg2+; 10 mM MES pH 6.5, 150 mM NaCl, 10 mM MgCl2, 0.05% Tween-20, 25 C; NMR: 10 mM Tris-d11, 150 mM NaCl, 10 mM MgCl2, 1 mM NaN3, 5% D2O (NOE at 25 C); conditions: protein: recombinant; tags: extra N-terminal Gly after TEV cleavage; His6-GB1 removed; chain copies: 2; label: 5' Alexa Fluor 488; hairpin (self-annealing, 11 bp stem, CCCC loop)
285bZIP M291A = target: T2, 285bZIP M291A (human, UniProt P16220-1 285-339, C300S;C310S;C337S;M291A); assay: stopped-flow fluorescence (koff/kon); 10 mM Mg2+; 10 mM MES pH 6.5, 150 mM NaCl, 10 mM MgCl2, 0.05% Tween-20, 25 C; NMR: 10 mM Tris-d11, 150 mM NaCl, 10 mM MgCl2, 1 mM NaN3, 5% D2O (NOE at 25 C); conditions: protein: recombinant; tags: extra N-terminal Gly; chain copies: 2; label: 5' Alexa Fluor 488; hairpin (self-annealing, 11 bp stem, CCCC loop)
T2 sequence: T1 sequence with M7A

285bZIP V288A = target: T3, 285bZIP V288A (human, UniProt P16220-1 285-339, C300S;C310S;C337S;V288A); assay: as above; conditions: protein: recombinant; tags: extra N-terminal Gly; chain copies: 2; label: 5' Alexa Fluor 488; hairpin (self-annealing, 11 bp stem, CCCC loop)
T3 sequence: T1 sequence with V4A

285bZIP E295A = target: T4, 285bZIP E295A (human, UniProt P16220-1 285-339, C300S;C310S;C337S;E295A); assay: as above; conditions: protein: recombinant; tags: extra N-terminal Gly; chain copies: 2; label: 5' Alexa Fluor 488; hairpin (self-annealing, 11 bp stem, CCCC loop)
T4 sequence: T1 sequence with E11A

285bZIP E295G = target: T5, 285bZIP E295G (human, UniProt P16220-1 285-339, C300S;C310S;C337S;E295G); assay: as above; conditions: protein: recombinant; tags: extra N-terminal Gly; chain copies: 2; label: 5' Alexa Fluor 488; hairpin (self-annealing, 11 bp stem, CCCC loop)
T5 sequence: T1 sequence with E11G

285bZIP V288G = target: T6, 285bZIP V288G (human, UniProt P16220-1 285-339, C300S;C310S;C337S;V288G); assay: as above; conditions: protein: recombinant; tags: extra N-terminal Gly; chain copies: 2; label: 5' Alexa Fluor 488; hairpin (self-annealing, 11 bp stem, CCCC loop)
T6 sequence: T1 sequence with V4G

285bZIP M291G = target: T7, 285bZIP M291G (human, UniProt P16220-1 285-339, C300S;C310S;C337S;M291G); assay: as above; conditions: protein: recombinant; tags: extra N-terminal Gly; chain copies: 2; label: 5' Alexa Fluor 488; hairpin (self-annealing, 11 bp stem, CCCC loop)
T7 sequence: T1 sequence with M7G

285bZIP E287G = target: T8, 285bZIP E287G (human, UniProt P16220-1 285-339, C300S;C310S;C337S;E287G); assay: as above; conditions: protein: recombinant; tags: extra N-terminal Gly; chain copies: 2; label: 5' Alexa Fluor 488; hairpin (self-annealing, 11 bp stem, CCCC loop)
T8 sequence: T1 sequence with E3G

285bZIP E287A = target: T9, 285bZIP E287A (human, UniProt P16220-1 285-339, C300S;C310S;C337S;E287A); assay: as above; conditions: protein: recombinant; tags: extra N-terminal Gly; chain copies: 2; label: 5' Alexa Fluor 488; hairpin (self-annealing, 11 bp stem, CCCC loop)
T9 sequence: T1 sequence with E3A

Binder: CCTGACGTCAGCCCCCTGACGTCAGG (structured_DNA) [AlexaFluor488-CREh]
- Kd [1]: 0.36 ± 0.04 nM
- Kd [2]: 0.38 ± 0.03 nM
- Kd (285bZIP M291A): 0.31 ± 0.03 nM
- Kd (285bZIP V288A): 0.46 ± 0.05 nM
- Kd (285bZIP E295A): 0.239 ± 0.016 nM
- Kd (285bZIP E295G): 6 ± 0.4 nM
- Kd (285bZIP V288G): 2.77 ± 0.16 nM
- Kd (285bZIP M291G): 5.2 ± 0.7 nM
- Kd (285bZIP E287G): 4.6 ± 0.6 nM
- Kd (285bZIP E287A): 1.89 ± 0.11 nM
